From US6846636B1, “Methods and compositions for HDL holoparticle uptake receptor” (American National Red Cross, priority 1998, dated 2005)
Entries after “also recorded” stand apart in the source; their conditions may differ.

Experiments:
[1] = system: RA/Bt2cAMP-treated F9 cells; assay: DiI-HDL uptake by laser scanning confocal fluorescence microscopy; type: cell-based, mouse; conditions: DiI-HDL 1 μg/ml, 2-4 h at 37° C., LDL 40 μg/ml, RAP 1 μM
Description: Cells were plated into gelatin-coated wells of 8-well plastic chamber slides (Nalge Nunc, Naperville, Ill.) (4×10^4 cells/cm^2) and incubated at 37° C., 5% CO2 for 2 hours. The cells were washed with serum-free DMEM and incubated in serum-free DMEM containing ITS (insulin 5 μg/ml, transferrin 5 μg/ml, sodium selenite 5 ng/ml, Boehringer Mannheim, Germany), penicillin, and streptomycin for 18 hours at 37° C., 5% CO2. Prior to addition of DiI-HDL, the cells were incubated with serum-free DMEM containing unlabeled HDL3 (40 μg/ml) or RAP (1 μM) for 0.5 hour at 37° C., 5% CO2. DiI-HDL (1 μg/ml) in serum-free DMEM or in serum-free DMEM containing unlabeled HDL3 (40 μg/ml) or RAP (1 μM) was then incubated with the cells for 2-4 hours at 37° C., 5% CO2. The cells were washed three times with Dulbecco's phosphate buffered saline (dPBS), fixed in 3% formaldehyde in dPBS for 20 minutes at room temperature. […]
Cells were plated into gelatin-coated wells of plastic chamber slides (Nalge Nunc, Naperville, Ill.) (4×10^4 cells/cm^2) and incubated at 37° C., 5% CO2 for 2 h. […] The cells were washed with dPBS, fixed in 3% formaldehyde in dPBS for 20 min at 25° C. and analyzed using a BiORad MRC1024 laser scanning confocal microscope.

[2] = system: RA/Bt2cAMP-treated F9 cells; assay: DiI-HDL uptake by fluorescence-activated cell (FAC) scanning; type: cell-based, mouse; conditions: DiI-HDL 1 μg/ml, 37° C.; competitors preincubated; apolipoproteins and RAP 1 μM, apoE 0.25 μM, heparin 80 μM, IgGs 200 μg/ml, heparinase I 10 U/ml
Description: Untreated and RA/Bt2cAMP-treated F9 cells (1-1.5×10^5 cells/cm^2) were grown for 18 hours in serum-free medium (DMEM, ITS, penicillin, and streptomycin). After washing the cell layers with the same serum-free medium, apoE-free DiI-HDL was added to a final concentration of 1 μg/ml and incubated for 1-2 hours at 37° C., 5% CO2. For competition experiments, competitors were added in serum-free medium and incubated for 0.5 hours at 37° C., 5% CO2 prior to the addition of the DiI-HDL. After the incubation, the medium was removed, cell layers washed with serum-free medium and the cells released with a 0.5 mg/ml trypsin-0.53 mM EDTA solution (Mediatech). The cells were then pelleted by centrifugation at 180×g and resuspended in DMEM. Twice more, the cells were pelleted by centrifugation at 180×g, and resuspended in dPBS. The cells were then subjected to FAC sorting on a FACStarplus instrument (Becton Dickinson, San Jose, Calif.).
RA/Bt2cAMP-treated and -untreated F9 cells (1-1.5×10^5 cclls/cm^2) were grown for 18 h in SFM. After washing the cell layers with SFM, DiI-HDL or DIO-LDL was added to a final concentration of 1 μg/ml and incubated for 2 h at 37° C., 5% CO2. For competition experiments, competitors (HDL, HDL2, HDL3 and their corresponding apoE-free forms), LDL, oxidized LDL, VLDL, §-VLDL, Lp(a) ([…]), apoA-I (28.3 μg/ml, 1 μM), apoA-II (I 7.3 μg/ml, 1 μM), apoC-I (6.6 μg/ml, 1 μM), apoC-III (8.8 μg/ml, 1 μM), apoJ (70 μg/ml, 1 μM), ovalbumin (45 μg/ml, 1 μM), RAP (39 μg/ml, 1 μM), apoE (8.5 μg/ml, 0.25 μM), heparin (80 μM, 250 U/ml) or IgGs (200 μg/ml) were added in SFM and incubated for 45 min at 37° C., 5% CO2 prior to the addition of the fluorescent lipoproteins. After the incubation, the medium was removed, cell layers were washed with SFM and the cells were released with trypsin-EDTA-proteinase K. The cells were washed once with DMEM, twice with dPBS, then subjected to FAC scanning on a FACStar Plus instrument (Becton Dickinson, San Jose, Calif.). Plotted data are from gated cells having fluorescence intensity values greater than the autofluorescence values of 99% of unlabeled cells. For some experiments, cell layers were treated with hepaninase I (10 U/ml) for 2 h prior to the addition of the DiI-HDL.

B1: RAP: 39 kDa chaperone protein that inhibits ligand binding to LDLR family members; recombinant human RAP (protein, UniProt P30533 35-357, looked up)
Alpha-2-macroglobulin …: YSREKNQPKPSPKRESGEEFRMEKLNQLWEKAQRLHLPPVRLAELHADLKIQERDELAWKKLKLDGLDEDGEKEARLIRNLNVILAKYGLDGKKDARQVTSNSLSGTQEDGLDDPRLEKLWHKAKTSGKFSGEELDKLWREFLHHKEKVHEYNVLLETLSRTEEIHENVISPSDLSDIKGSVLHSRHTELKEKLRSINQGLDRLRRVSHQGYSTEAEFEEPRVIDLWDLAQSANLTDKELEAFREELKHFEAKIEKHNHYQKQLEIAHEKLRHAESVGDGERVSRSREKHALLEGRTKELGYTVKKHLQDLSGRISRARHNEL
In the case of B1, the “uptake of DiI-HDL (cell staining)” value [1] is reported as “completely blocked” and the “DiI-HDL uptake in presence of competitor” value [2] is reported as “could be blocked; also recorded: completely blocked”.
